± gives the uncertainty stated by the source.
B1: FERM and PDZ domain-containing protein 4, residues 75 to 154; numbered along this chain, Q14CM0 (parent)
chain: APRKVEMRRDPVLGFGFVAGSEKPVVVRSVTPGGPSEGKLIPGDQIVMINDEPVSAAPRERVIDLVRSCKESILLTVIQP

Variants of: B1
Assay: abundance fitness (aPCA) (normalised: wild type 0, dead -1); higher = more abundant; growth selection in yeast, the domain comes from the species named
Settings: Homo sapiens

**Q.** With N50Y as the variant, how does the abundance fitness read?
**A.** -0.162 ± 0.044

**Q.** Which abundance fitness does the source give for N50W here?
**A.** -0.173 ± 0.025

**Q.** For N50K, which abundance fitness is on record?
**A.** -0.223 ± 0.032

**Q.** With N50T as the variant, how does the abundance fitness read?
**A.** -0.597 ± 0.034

**Q.** Which abundance fitness does the source give for N50M here?
**A.** -0.187 ± 0.028

**Q.** For E60F, which abundance fitness is on record?
**A.** -0.183 ± 0.035

**Q.** With E60K as the variant, how does the abundance fitness read?
**A.** -0.015 ± 0.029

**Q.** For E60G, which abundance fitness is on record?
**A.** -0.025 ± 0.019

**Q.** For E60I, which abundance fitness is on record?
**A.** -0.21 ± 0.04

**Q.** With E60W as the variant, how does the abundance fitness read?
**A.** -0.112 ± 0.024

**Q.** With E60R as the variant, how does the abundance fitness read?
**A.** -0.041 ± 0.02

**Q.** Which abundance fitness does the source give for E60C here?
**A.** -0.059 ± 0.028

**Q.** For E60P, which abundance fitness is on record?
**A.** -0.077 ± 0.029

**Q.** With E60L as the variant, how does the abundance fitness read?
**A.** -0.137 ± 0.022

**Q.** For E60D, which abundance fitness is on record?
**A.** -0.049 ± 0.032

**Q.** Which abundance fitness does the source give for E60N here?
**A.** -0.028 ± 0.038

**Q.** For E60M, which abundance fitness is on record?
**A.** -0.048 ± 0.03

**Q.** Which abundance fitness does the source give for E60T here?
**A.** -0.03 ± 0.026

**Q.** For E60V, which abundance fitness is on record?
**A.** -0.131 ± 0.022

**Q.** For E60Y, which abundance fitness is on record?
**A.** -0.178 ± 0.036

**Q.** With E60S as the variant, how does the abundance fitness read?
**A.** -0.005 ± 0.024

**Q.** With E60H as the variant, how does the abundance fitness read?
**A.** -0.038 ± 0.037

**Q.** Which abundance fitness does the source give for E52N here?
**A.** -0.048 ± 0.039

**Q.** Which abundance fitness does the source give for E52G here?
**A.** -0.321 ± 0.02

**Q.** Which abundance fitness does the source give for E52L here?
**A.** -0.026 ± 0.022

**Q.** For E52P, which abundance fitness is on record?
**A.** -0.861 ± 0.058

**Q.** Which abundance fitness does the source give for E52I here?
**A.** -0.053 ± 0.04

**Q.** Which abundance fitness does the source give for E52T here?
**A.** -0.037 ± 0.028

**Q.** For E52R, which abundance fitness is on record?
**A.** -0.053 ± 0.02

**Q.** For E52D, which abundance fitness is on record?
**A.** -0.071 ± 0.032

**Q.** With E52Y as the variant, how does the abundance fitness read?
**A.** -0.045 ± 0.036

**Q.** For E52W, which abundance fitness is on record?
**A.** -0.065 ± 0.023

**Q.** With E52Q as the variant, how does the abundance fitness read?
**A.** -0.012 ± 0.028

**Q.** For E52S, which abundance fitness is on record?
**A.** -0.102 ± 0.024

**Q.** Which abundance fitness does the source give for E52F here?
**A.** -0.083 ± 0.035

**Q.** With E52M as the variant, how does the abundance fitness read?
**A.** -0.038 ± 0.028

**Q.** With E52C as the variant, how does the abundance fitness read?
**A.** -0.069 ± 0.03

**Q.** Which abundance fitness does the source give for E52H here?
**A.** -0.037 ± 0.038

**Q.** Which abundance fitness does the source give for E52K here?
**A.** -0.066 ± 0.031

**Q.** With R59N as the variant, how does the abundance fitness read?
**A.** -0.025 ± 0.038

**Q.** Which abundance fitness does the source give for R59Y here?
**A.** 0.025 ± 0.035

**Q.** Which abundance fitness does the source give for R59A here?
**A.** -0.028 ± 0.023

**Q.** Which abundance fitness does the source give for R59E here?
**A.** -0.05 ± 0.027

**Q.** With R59S as the variant, how does the abundance fitness read?
**A.** -0.06 ± 0.023

**Q.** With R59P as the variant, how does the abundance fitness read?
**A.** -0.025 ± 0.026

**Q.** For R59T, which abundance fitness is on record?
**A.** -0.03 ± 0.026

**Q.** For R59F, which abundance fitness is on record?
**A.** 0.005 ± 0.035

**Q.** With R59G as the variant, how does the abundance fitness read?
**A.** -0.007 ± 0.02

**Q.** For R59C, which abundance fitness is on record?
**A.** -0.03 ± 0.031

**Q.** For R59Q, which abundance fitness is on record?
**A.** 0.022 ± 0.028

**Q.** For R59L, which abundance fitness is on record?
**A.** 0.007 ± 0.022

**Q.** Which abundance fitness does the source give for R59M here?
**A.** -0.039 ± 0.028

**Q.** For R59V, which abundance fitness is on record?
**A.** -0.051 ± 0.022

**Q.** For R59D, which abundance fitness is on record?
**A.** -0.385 ± 0.036

**Q.** Which abundance fitness does the source give for R59H here?
**A.** -0.059 ± 0.035

**Q.** For R59W, which abundance fitness is on record?
**A.** -0.025 ± 0.024

**Q.** For R61A, which abundance fitness is on record?
**A.** -0.018 ± 0.029

**Q.** With R61H as the variant, how does the abundance fitness read?
**A.** -0.012 ± 0.031

**Q.** For R61D, which abundance fitness is on record?
**A.** -0.021 ± 0.035

**Q.** Which abundance fitness does the source give for R61F here?
**A.** -0.044 ± 0.034

**Q.** Which abundance fitness does the source give for R61C here?
**A.** -0.065 ± 0.032

**Q.** With R61G as the variant, how does the abundance fitness read?
**A.** -0.134 ± 0.029

**Q.** With R61E as the variant, how does the abundance fitness read?
**A.** -0.071 ± 0.035

**Q.** For S55P, which abundance fitness is on record?
**A.** -0.027 ± 0.19

**Q.** Which abundance fitness does the source give for S55F here?
**A.** -0.143 ± 0.055

**Q.** For S55T, which abundance fitness is on record?
**A.** -0.157 ± 0.25

**Q.** For A57S, which abundance fitness is on record?
**A.** -0.009 ± 0.024

**Q.** With A57P as the variant, how does the abundance fitness read?
**A.** -0.816 ± 0.045

**Q.** Which abundance fitness does the source give for A57F here?
**A.** 0.016 ± 0.038

**Q.** With A57W as the variant, how does the abundance fitness read?
**A.** 0.016 ± 0.024

**Q.** With A57Y as the variant, how does the abundance fitness read?
**A.** 0.038 ± 0.037

**Q.** For A57M, which abundance fitness is on record?
**A.** 0.009 ± 0.028

**Q.** For A57N, which abundance fitness is on record?
**A.** -0.149 ± 0.038

**Q.** With A57I as the variant, how does the abundance fitness read?
**A.** -0.055 ± 0.035

**Q.** With A57G as the variant, how does the abundance fitness read?
**A.** -0.233 ± 0.021

**Q.** Which abundance fitness does the source give for A57T here?
**A.** 0 ± 0.028

**Q.** Which abundance fitness does the source give for A57E here?
**A.** -0.022 ± 0.028

**Q.** With A57H as the variant, how does the abundance fitness read?
**A.** -0.083 ± 0.039

**Q.** With A57K as the variant, how does the abundance fitness read?
**A.** -0.055 ± 0.032

**Q.** With A57Q as the variant, how does the abundance fitness read?
**A.** -0.028 ± 0.03

**Q.** Which abundance fitness does the source give for A57L here?
**A.** 0.032 ± 0.023

**Q.** For A57R, which abundance fitness is on record?
**A.** -0.12 ± 0.021

**Q.** For A57D, which abundance fitness is on record?
**A.** -0.052 ± 0.034

**Q.** For A57C, which abundance fitness is on record?
**A.** -0.005 ± 0.03

Source: the Human Domainome abundance scans (Beltran et al. 2025)
